In one data set the target is GST (UniProt P08515 P08515:2-218). Kind of data set: EMSA; GST alone control. The note with it: tags: GST alone, label: 32P end. As to the method: (§1) The Kpnl-D4Z4 unit plasmid, used to generate EMSA probes for the experiments shown in FIGS. 2A-2C, was kindly provided by L. Felicetti. For the EMSA experiments shown in FIG. 4, oligonucleotide probes were prepared by end-labeling double-stranded oligonucleotides covering the region of the minimal binding site. The sequences of the oligonucleotides were as follows: WT, 5′-[…]-3′ (SEQ ID NO:1); MUT, 5′-CTCACCGCCgcc[…]-3′ (SEQ ID NO:2) (mutated nucleotides are shown in italics). DNA binding reactions were carried out in 20 μl of 10 mM HEPES (pH 8), 10% glycerol, 50 mM KCl, 0.1 mM EDTA, 0.25 mM DTT, 0.1 mg/ml poly (dl-dC), 0.1 mg/ml bovine serum albumin, 20,000 cpm of radiolabeled probe. The samples were incubated for 30 minutes on ice in the presence of the indicated nuclear extract or protein fraction. For competition assays, unlabeled probes were added to the reaction mixture at the same time as the labeled probe. For supershift assays, a binding reaction was assembled in the absence of radiolabeled probe. Antibodies were added to the binding reaction and the samples were incubated 15 minutes at room temperature. Radiolabled probe was added and the samples were incubated for additional 30 minutes on ice. Reaction mixtures were loaded in the cold room onto 6% native polyacrylamide gels containing 0.5×Tris-borate-EDTA (TBE) that had been preelectrophoresed for 30 minutes at 20 mA. […]

In data set [1] the target is T1, GST-YY1 (UniProt P25490 P25490:1-414). Kind of data set: EMSA; 50 mM KCl, pH 8, poly(dI-dC), on ice. The note with it: tags: GST fusion, expressed in E. coli; label: 32P end. As for the experimental part:
as §1

In data set [2] the target is T1, GST-YY1. The data set is described as follows: EMSA; YY1 core mutated. The note with it: tags: GST fusion, expressed in E. coli; label: 32P end. As for the experimental part: as §1

Residue numbers refer to the chain shown, from its start.

T1 sequence (P25490 whole entry, the tested form may be a part, one chain of several): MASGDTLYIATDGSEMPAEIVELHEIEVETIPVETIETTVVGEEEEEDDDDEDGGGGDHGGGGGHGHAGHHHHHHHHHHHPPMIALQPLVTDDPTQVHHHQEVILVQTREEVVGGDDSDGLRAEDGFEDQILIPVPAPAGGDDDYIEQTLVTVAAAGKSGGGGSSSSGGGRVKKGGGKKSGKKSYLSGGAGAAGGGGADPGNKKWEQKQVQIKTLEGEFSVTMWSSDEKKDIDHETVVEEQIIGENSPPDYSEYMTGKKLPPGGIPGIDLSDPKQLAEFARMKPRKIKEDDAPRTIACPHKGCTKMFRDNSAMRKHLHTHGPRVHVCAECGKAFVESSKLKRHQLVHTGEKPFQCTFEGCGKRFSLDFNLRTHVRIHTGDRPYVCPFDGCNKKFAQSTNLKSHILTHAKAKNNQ
GST, sequence (P08515 2-218, one chain of several): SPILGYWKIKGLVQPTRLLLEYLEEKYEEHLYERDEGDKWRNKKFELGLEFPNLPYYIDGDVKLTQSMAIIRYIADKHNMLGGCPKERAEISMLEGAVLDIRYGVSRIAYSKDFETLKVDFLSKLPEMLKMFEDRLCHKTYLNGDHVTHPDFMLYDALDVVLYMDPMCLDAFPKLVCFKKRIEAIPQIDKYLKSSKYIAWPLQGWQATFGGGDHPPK

B1: DBE WT probe (dsDNA)
DNA 1: CTCACCGCCATTCATGAAGGGGTGGAGCCTGCCTG
DNA 2: CAGGCAGGCTCCACCCCTTCATGAATGGCGGTGAG
B1: the binding result with GST is on record as “no binding”; with GST-YY1 [1], “binds”.

B2: DBE MUT probe (dsDNA)
DNA 1: B1 DNA 1 with A10G, T11C, T12C
DNA 2: B1 DNA 2 with A24G, A25G, T26C
Consider B2, for which the binding result with GST-YY1 [2] was “no binding”.
